Assay results as given in patent US20250092136A1 (Hoffmann-La Roche, published 2025).
Changes are numbered by the printed parent chain. In names and notes the source's numbering stands.

B1: HER2-TCB containing the parental CD3 binder P1AH4929 / CD3orig (bispecific antibody, human IgG1, kappa, L234A L235A)
heavy 1: not shown
heavy 2: not shown
light 1: EVQLLESGGGLVQPGGSLRLSCAASGFTFSSYAMNWVRQAPGKGLEWVSRIRSKYNNYATYYADSVKGRFTISRDDSKNTLYLQMNSLRAEDTAVYYCVRASNFPASYVSYFAYWGQGTLVTVSSASVAAPSVFIFPPSDEQLKSGTASVVCLLNNFYPREAKVQWKVDNALQSGNSQESVTEQDSKDSTYSLSSTLTLSKADYEKHKVYACEVTHQGLSSPVTKSFNRGEC
light 2: not shown
notes: 2+1 IgG CrossFab, inverted: VH/VL exchange in the CD3 Fab, charge modifications in the two HER2 Fabs, knob-into-hole and P329G LALA in the Fc; also called PIAH4929
B2: HER2-TCB containing the optimized CD3 binder P1AI7913 (bispecific antibody, human IgG1, kappa, L234A L235A)
heavy 1: not shown
heavy 2: not shown
light 1: B1 light 1 with S49G, I51V, S53T, Y58R, A59E, T60P
light 2: not shown
notes: 2+1 IgG CrossFab, inverted: VH/VL exchange in the CD3 Fab, charge modifications in the two HER2 Fabs, knob-into-hole and P329G LALA in the Fc; also called P1AI7913 (in TCB format)
B3: HER2-TCB containing the optimized CD3 binder P1AI7912 (bispecific antibody, human IgG1, kappa, L234A L235A)
heavy 1: not shown
heavy 2: not shown
light 1: B1 light 1 with S49G, I51V, S53T, K54T, Y58R, A59E, T60P
light 2: not shown
notes: 2+1 IgG CrossFab, inverted: VH/VL exchange in the CD3 Fab, charge modifications in the two HER2 Fabs, knob-into-hole and P329G LALA in the Fc; also called P1AI7912 (in TCB format)
B4: HER2-TCB containing the optimized CD3 binder P1AI7915 (bispecific antibody, human IgG1, kappa, L234A L235A)
heavy 1: not shown
heavy 2: not shown
light 1: B1 light 1 with S49G, I51Q, S53T, K54Q, Y58R, A59E, T60D
light 2: not shown
notes: 2+1 IgG CrossFab, inverted; also called P1AI7915 (in TCB format)

target: T1, Bovine Serum Albumin (bovine, UniProt P02769 25-607); experiment: polyreactivity ELISA, coated antigen
T1 construct: also called BSA
T1 sequence (P02769 25-607 limits assumed): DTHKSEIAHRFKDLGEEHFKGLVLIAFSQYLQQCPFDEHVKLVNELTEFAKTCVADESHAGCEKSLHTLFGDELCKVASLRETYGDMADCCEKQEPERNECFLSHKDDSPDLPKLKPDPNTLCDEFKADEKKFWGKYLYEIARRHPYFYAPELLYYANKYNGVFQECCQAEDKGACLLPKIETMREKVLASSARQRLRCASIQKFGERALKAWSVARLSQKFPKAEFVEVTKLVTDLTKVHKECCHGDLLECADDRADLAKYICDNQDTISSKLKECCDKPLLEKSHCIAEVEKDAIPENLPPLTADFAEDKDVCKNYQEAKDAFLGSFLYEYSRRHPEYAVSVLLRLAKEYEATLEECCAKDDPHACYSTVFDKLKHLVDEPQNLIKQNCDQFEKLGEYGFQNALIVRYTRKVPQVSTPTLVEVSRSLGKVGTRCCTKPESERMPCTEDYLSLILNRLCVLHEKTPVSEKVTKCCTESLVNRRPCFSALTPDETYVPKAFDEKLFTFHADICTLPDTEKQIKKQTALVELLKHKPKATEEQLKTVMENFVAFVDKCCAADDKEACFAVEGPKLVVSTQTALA
Experimental: (§1) Polyreactivity was tested using an ELISA-based read out. A set of different antigens depicted in Table 9 was coated on a Nunc MaxiSorp microtiter plate (Fisher Scientific) overnight at 4° C. with a concentration of 1 μg/ml in Dulbecco's phosphate buffered saline (DPBS, PAN Biotech #P04-36500) each. After washing the plate two times using PBS (Roche Diagnostics #11666789001) containing 0.1% Tween-20, plates were blocked with DPBS, 2% bovine serum albumin (BSA, Roche Diagnostics #10735108001) for 1 hour at room temperature. After washing the plate three times, the HER2 TCBs were added with a concentration of 1 μg/ml diluted in DPBS and incubated for 1 hour at room temperature. Subsequently, plates were washed three times and an anti-human IgG F(ab′)2-HRP (Jackson ImmunoResearch #109-036-006) diluted 1:5000 in PBS, 0.5% BSA, 0.05% Tween-20 was added. After incubation for 1 hour at room temperature and washing for four times, TMB substrate (Sigma-Aldrich #T0440) was added and absorption was measured at 370/492 nm.

Row | Binder | binding result
1 | B1 | no binding (tested: 1 µg/ml)
2 | B2 | no binding (tested: 1 µg/ml)
3 | B3 | no binding (tested: 1 µg/ml)
4 | B4 | no binding (tested: 1 µg/ml)

target: T2, Streptavidin (UniProt P22629 37-163, limits assumed); experiment: polyreactivity ELISA, coated antigen
T2 sequence (P22629 37-163 limits assumed): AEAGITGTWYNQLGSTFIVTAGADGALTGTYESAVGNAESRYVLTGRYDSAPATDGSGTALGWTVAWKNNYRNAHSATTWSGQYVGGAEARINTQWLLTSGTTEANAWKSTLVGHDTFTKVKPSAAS
Experimental: as §1

Row | Binder | binding result
5 | B1 | no binding (tested: 1 µg/ml)
6 | B2 | no binding (tested: 1 µg/ml)
7 | B3 | no binding (tested: 1 µg/ml)
8 | B4 | no binding (tested: 1 µg/ml)

target: T3, Histone H4 aa2-24 (UniProt P62805 2-24); experiment: polyreactivity ELISA, coated antigen
T3 construct: range 2-24
Experimental: as §1

Row | Binder | binding result
9 | B1 | no binding (tested: 1 µg/ml)
10 | B2 | no binding (tested: 1 µg/ml)
11 | B3 | no binding (tested: 1 µg/ml)
12 | B4 | no binding (tested: 1 µg/ml)

target: T4, Biotinylated human CD3ε stalk-Fc (knob)-Avi / CD3δ stalk-Fc (hole) (human, biotinylated); experiment: SPR (Biacore T200), biotinylated CD3ε/δ-Fc on SA chip, TCB as analyte, 25 °C, 1:1 fit
T4 construct: also called human CD3ε/δ
T4 sequence (chain, as listed by the source mutant limits assumed, chain 1 of 2): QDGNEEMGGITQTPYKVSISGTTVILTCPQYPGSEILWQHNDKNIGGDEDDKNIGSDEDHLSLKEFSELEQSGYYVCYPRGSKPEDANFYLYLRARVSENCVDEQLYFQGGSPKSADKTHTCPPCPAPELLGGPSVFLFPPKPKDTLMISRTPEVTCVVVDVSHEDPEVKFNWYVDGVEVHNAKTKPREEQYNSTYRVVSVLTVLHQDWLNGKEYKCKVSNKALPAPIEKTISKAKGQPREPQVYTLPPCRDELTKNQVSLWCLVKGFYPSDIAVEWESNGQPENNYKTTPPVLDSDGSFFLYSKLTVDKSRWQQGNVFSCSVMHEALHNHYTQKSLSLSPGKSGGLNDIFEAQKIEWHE
T4 sequence (chain, as listed by the source mutant limits assumed, chain 2 of 2): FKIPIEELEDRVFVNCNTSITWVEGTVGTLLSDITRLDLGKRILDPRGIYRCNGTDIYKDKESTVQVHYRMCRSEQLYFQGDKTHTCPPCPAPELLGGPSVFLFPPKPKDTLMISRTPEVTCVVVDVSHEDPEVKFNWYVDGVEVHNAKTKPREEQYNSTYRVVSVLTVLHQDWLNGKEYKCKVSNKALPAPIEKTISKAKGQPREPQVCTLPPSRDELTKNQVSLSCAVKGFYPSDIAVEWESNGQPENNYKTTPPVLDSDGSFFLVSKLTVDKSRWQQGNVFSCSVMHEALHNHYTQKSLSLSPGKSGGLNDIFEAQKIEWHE
Experimental: (§2) CD3 binding was investigated using surface plasmon resonance (SPR) on a Biacore T200 instrument (Cytiva). All experiments were performed at 25° C. using HEPES buffered saline (20 mM HEPES, 140 mM NaCl, 0.05% PS-20) pH 7.4. The experimental setup is schematically depicted in FIG. 3.
(§3) Biotinylated human and cynomolgus CD3ε stalk-Fc (knob)-Avi/[…] stalk-Fc (hole) (CD3E/8, see SEQ ID NOs 49 and 50 (human) and SEQ ID NOs 51 and 52 (cynomolgus)) were coupled to a Series S Sensor Chip SA (Cytiva, #29104992) according to the manufacturer's instructions. A concentration series ranging from 0.37 to 300 nM (1:3) of the TCB antibody molecules were injected with 90 s association time, followed by a buffer wash of 300 s for monitoring the dissociation phase. Bulk refractive index differences were corrected by subtracting the response obtained from a mock surface. Blank injections were subtracted (double referencing). Kinetic constants were derived using the Biacore T200 Evaluation Software (Cytiva), to fit rate equations for 1:1 Langmuir binding by numerical integration. The half-life (t_{1/2}) of the interaction was calculated using the formula t_{1/2}=ln2/koff.

Row | Binder | Kd | t1/2
13 | B1 | 0.2 nM | 529 s
14 | B2 | 1.5 nM | 81 s
15 | B3 | 12.6 nM | 11 s
16 | B4 | 11.5 nM | 30 s

target: T5, Biotinylated cynomolgus CD3ε stalk-Fc (knob)-Avi / CD3δ stalk-Fc (hole) (cynomolgus, biotinylated); experiment: as above
T5 construct: Heterodimer of CD3 epsilon and CD3 delta ectodomains fused to Fc knob/hole; also called cynomolgus CD3ε/δ; cyno CD3
T5 sequence (chain, as listed by the source mutant limits assumed, chain 1 of 2): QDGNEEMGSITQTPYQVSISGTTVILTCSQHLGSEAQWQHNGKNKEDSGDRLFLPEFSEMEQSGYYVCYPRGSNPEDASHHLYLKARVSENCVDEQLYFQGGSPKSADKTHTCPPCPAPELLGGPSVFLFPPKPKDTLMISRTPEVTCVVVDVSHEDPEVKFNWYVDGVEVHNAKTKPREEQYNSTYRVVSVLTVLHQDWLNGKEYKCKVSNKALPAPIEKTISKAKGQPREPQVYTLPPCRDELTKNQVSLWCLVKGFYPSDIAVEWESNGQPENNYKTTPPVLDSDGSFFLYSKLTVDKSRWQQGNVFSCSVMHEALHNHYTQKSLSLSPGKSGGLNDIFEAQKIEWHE
T5 sequence (chain, as listed by the source mutant limits assumed, chain 2 of 2): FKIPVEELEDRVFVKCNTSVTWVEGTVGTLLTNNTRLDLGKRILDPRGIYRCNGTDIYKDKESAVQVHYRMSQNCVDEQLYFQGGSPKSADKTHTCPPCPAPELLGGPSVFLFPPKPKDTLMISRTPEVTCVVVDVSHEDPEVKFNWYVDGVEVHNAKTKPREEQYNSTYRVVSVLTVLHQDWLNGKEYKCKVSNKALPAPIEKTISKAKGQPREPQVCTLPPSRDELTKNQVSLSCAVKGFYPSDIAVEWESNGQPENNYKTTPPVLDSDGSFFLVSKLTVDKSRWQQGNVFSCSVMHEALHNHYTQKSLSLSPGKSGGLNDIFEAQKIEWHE
Experimental: as §2, §3

Row | Binder | Kd | t1/2
17 | B1 | 0.2 nM | 519 s
18 | B2 | 1.3 nM | 81 s
19 | B3 | 11.3 nM | 11 s
20 | B4 | 9.7 nM | 31 s

target: T6, Human CD3 on Jurkat NFAT reporter cells (human, UniProt P07766 23-207); experiment: flow cytometry on CD3-expressing Jurkat NFAT reporter cells, PE-conjugated anti-human IgG Fc secondary antibody, median fluorescence intensity
T6 construct: CD3 complex on the cell surface; also called CD3 on Jurkat cells; CD3 antigen (expressed on Jurkat-NFAT reporter cells)
T6 sequence (P07766 23-207 limits assumed): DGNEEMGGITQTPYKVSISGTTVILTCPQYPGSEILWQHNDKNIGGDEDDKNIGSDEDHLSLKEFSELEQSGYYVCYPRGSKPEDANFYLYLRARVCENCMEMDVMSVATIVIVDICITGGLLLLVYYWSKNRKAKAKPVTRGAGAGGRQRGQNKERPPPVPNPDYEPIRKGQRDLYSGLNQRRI
Experimental: The antibody staining was performed in a 96-well round bottom plate. Therefore 200′000 cells were seeded per well.

Row | Binder | EC50 (read off the curve)
21 | B1 | ~6 nM

target: Hemocyanin; experiment: polyreactivity ELISA, coated antigen 1 µg/ml, TCB 1 µg/ml
Experimental: as §1

Row | Binder | Absorbance (OD)
22 | B1 | 0.02 OD
23 | B2 | 0.07 OD
24 | B3 | 0.02 OD
25 | B4 | 0.08 OD

target: HSP90; experiment: as above
Experimental: as §1

Row | Binder | Absorbance (OD)
26 | B1 | 0.02 OD
27 | B2 | 0.03 OD
28 | B3 | 0.07 OD
29 | B4 | 0.07 OD

target: T1, Bovine Serum Albumin; experiment: as above
Experimental: as §1

Row | Binder | Absorbance (OD)
30 | B1 | 0 OD
31 | B2 | 0.01 OD
32 | B3 | 0 OD
33 | B4 | 0.01 OD

target: T2, Streptavidin; experiment: as above
Experimental: as §1

Row | Binder | Absorbance (OD)
34 | B1 | 0 OD
35 | B2 | 0.01 OD
36 | B3 | 0 OD
37 | B4 | 0 OD

target: Insulin; experiment: as above
Experimental: as §1

Row | Binder | Absorbance (OD)
38 | B1 | 0.01 OD
39 | B2 | 0.04 OD
40 | B3 | 0.02 OD
41 | B4 | 0.04 OD

target: Gelatine (2%); experiment: as above
Experimental: as §1

Row | Binder | Absorbance (OD)
42 | B1 | -0.01 OD
43 | B2 | 0.01 OD
44 | B3 | -0.01 OD
45 | B4 | 0.01 OD

target: T3, Histone H4 aa2-24; experiment: as above
Experimental: as §1

Row | Binder | Absorbance (OD)
46 | B1 | 0.05 OD
47 | B2 | 0.06 OD
48 | B3 | 0 OD
49 | B4 | 0.07 OD

target: human CD3ε (coated antigen of the polyreactivity ELISA) (human, UniProt P07766 23-126, limits assumed); experiment: as above
Sequence (P07766 23-126 limits assumed): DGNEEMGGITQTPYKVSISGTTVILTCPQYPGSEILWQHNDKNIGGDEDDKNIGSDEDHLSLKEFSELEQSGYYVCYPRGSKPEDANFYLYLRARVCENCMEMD
Experimental: as §1

Row | Binder | Absorbance (OD)
50 | B1 | 2.87 OD
51 | B2 | 2.83 OD
52 | B3 | 2.2 OD
53 | B4 | 2.99 OD

target: Apolipoprotein A-1; experiment: as above
Sequence (P02647 25-267): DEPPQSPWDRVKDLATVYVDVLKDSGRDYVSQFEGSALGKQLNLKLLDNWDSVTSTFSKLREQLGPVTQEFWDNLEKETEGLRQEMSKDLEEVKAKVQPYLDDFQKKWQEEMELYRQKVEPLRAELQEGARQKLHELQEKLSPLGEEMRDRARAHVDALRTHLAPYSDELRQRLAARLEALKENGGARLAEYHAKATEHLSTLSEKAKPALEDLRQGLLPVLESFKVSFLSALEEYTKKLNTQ
Experimental: as §1

Row | Binder | Absorbance (OD)
54 | B1 | 0 OD
55 | B2 | 0.01 OD
56 | B3 | 0.01 OD
57 | B4 | 0.01 OD
